Ends that are not written are not given here.
What was measured:
NCL = NCL (Homo sapiens, UniProt P19338); assay: siRNA-mediated knockdown of NCL (real-time PCR, Western blot); format: cell-based
Cancer cells = assay: ELISA for the affinities of AGM-330 and its variants on cancer cells; format: cell-based; conditions: biotin-conjugated PEGylated peptides, 2 hours, read at 450
Protocol: Then, avidin-HRP was attached through a high-affinity avidin-biotin interaction, and the TMB substrate was converted to blue through HRP enzyme. Then, the reaction was terminated by adding an acid, and the affinities of the 13 peptides were assessed by ELISA by reading the wells at […].
Cancer cells (1×10^4 cells/well) were cultured in 96-well plates for 24 hours. AGM-330 and the 12 PEGylated peptides shown Table 2 were biotin-conjugated, and the cells were treated with increasing concentrations of the 13 peptides for 2 hours.
(§1) Thereafter, avidin-HRP was attached through a high-affinity avidin-biotin interaction, and the TMB substrate was converted to blue color through HRP enzyme. Then, the reaction was terminated by adding an acid, and the affinities of the 13 peptides were assessed by ELISA by reading the wells at […].

MCF-10A = assay: Whole-cell binding (cell-growth-on-bead) assay of screened peptide beads; format: cell-based, human
Protocol: (§2) Here, multiple breast and colorectal cancer cells and normal breast and colorectal cells were re-suspended at 10^6 cells/ml and incubated with beads. All experiments were repeated 3 times, and the scale bar is 200 μm. […] Here, nuclei were stained with DAPI (blue), and scale bar is 50 μm. […] Here, a whole-cell binding assay was performed to determine the cell binding of AGM-330, and the scale bar is 200 μm. […] Fmoc=9-fluorenylmethoxycarbonyl, DMF=dimethylformamide. […] Here, bar graphs represent the mean±SD, and statistical analyses were performed by one-way ANOVA with Dunnett's multiple comparison. *, **, and *** indicate P<0.05, P<0.01, and P<0.001, respectively.
(§3) The beads were washed extensively with double-distilled water and phosphate-buffered saline (PBS; Welgene Inc., Korea) before screening. Cancer cells and normal cells were detached from culture dishes with trypsin/EDTA (Gibco), washed with their corresponding culture medium, resuspended at 10^6 cells/ml, and incubated with OBOC beads in Petri dishes in a humidified CO2 incubator at 37° C. with shaking (60 rpm). Beads bound by cells appeared under a microscope as rosettes with a central bead covered by one or more layers of cells. The positive beads were picked by pipette under an inverted microscope, treated with guanidine-HCL (8 M, 20 min) to remove cells and proteins on the bead surface, and subjected to a second round of screening with normal breast epithelial cells to eliminate false positive binding. Only beads with cell binding at both rounds were sent for peptide sequencing.
(§4) To identify a novel cancer-specific peptide ligand, the present inventors synthesized about 2, 600,000 libraries using 5 g of Tentagel MB NH2 resin (200 μm, 520,000 beads/g; FIG. 3).

MDA-MB-231 = assay: as above; format: cell-based, human
Protocol: as §2, §3, §4

MCF-10A and CCD-18Co = assay: Cell-growth-on-bead assay, normal cell lines; format: cell-based, human
Protocol: as §2, §3, §4

[1] = molecular target: T1, membrane nucleolin (NCL) on cancer cells (human, UniProt P19338 2-710); assay: cell ELISA: biotin-conjugated PEGylated peptide on cancer cells (cell line not given), 2 h, avidin-HRP/TMB, absorbance at 450 nm
T1 construct: whole, on cells; also called membrane NCL; membrane-expressed NCL
T1 sequence (P19338 2-710): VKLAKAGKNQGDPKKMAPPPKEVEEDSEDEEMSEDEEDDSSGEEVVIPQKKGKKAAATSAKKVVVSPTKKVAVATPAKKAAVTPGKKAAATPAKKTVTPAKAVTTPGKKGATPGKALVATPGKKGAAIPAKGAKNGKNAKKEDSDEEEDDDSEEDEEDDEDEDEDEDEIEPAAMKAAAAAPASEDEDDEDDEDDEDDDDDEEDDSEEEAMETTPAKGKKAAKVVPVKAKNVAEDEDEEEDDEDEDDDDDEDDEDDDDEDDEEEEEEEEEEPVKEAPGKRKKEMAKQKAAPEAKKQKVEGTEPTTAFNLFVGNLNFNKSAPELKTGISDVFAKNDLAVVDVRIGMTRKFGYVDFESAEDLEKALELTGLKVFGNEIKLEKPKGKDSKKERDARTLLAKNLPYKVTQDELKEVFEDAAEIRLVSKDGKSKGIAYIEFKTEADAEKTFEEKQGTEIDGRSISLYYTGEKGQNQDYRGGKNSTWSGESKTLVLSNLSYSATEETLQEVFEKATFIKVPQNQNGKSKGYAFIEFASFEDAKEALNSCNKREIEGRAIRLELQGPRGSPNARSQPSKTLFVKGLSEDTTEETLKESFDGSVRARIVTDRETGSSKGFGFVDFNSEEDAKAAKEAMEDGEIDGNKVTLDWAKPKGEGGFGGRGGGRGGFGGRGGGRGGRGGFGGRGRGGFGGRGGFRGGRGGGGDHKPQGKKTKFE
Protocol: Cancer cells (1×10⁴ cells/well) were seeded in 96-well plates and cultured for 24 hours, and then the cells were treated with increasing concentrations of 13 biotin-conjugated peptides for 2 hours. Then, avidin-HRP was attached through a high-affinity avidin-biotin interaction, and the TMB substrate was converted to blue through HRP enzyme. Then, the reaction was terminated by adding an acid, and the affinities of the 13 peptides were assessed by ELISA by reading the wells at […].
Cancer cells (1×10⁴ cells/well) were cultured in 96-well plates for 24 hours. AGM-330 and the 12 PEGylated peptides shown Table 2 were biotin-conjugated, and the cells were treated with increasing concentrations of the 13 peptides for 2 hours.
as §1

NCL, sequence (P19338 whole entry): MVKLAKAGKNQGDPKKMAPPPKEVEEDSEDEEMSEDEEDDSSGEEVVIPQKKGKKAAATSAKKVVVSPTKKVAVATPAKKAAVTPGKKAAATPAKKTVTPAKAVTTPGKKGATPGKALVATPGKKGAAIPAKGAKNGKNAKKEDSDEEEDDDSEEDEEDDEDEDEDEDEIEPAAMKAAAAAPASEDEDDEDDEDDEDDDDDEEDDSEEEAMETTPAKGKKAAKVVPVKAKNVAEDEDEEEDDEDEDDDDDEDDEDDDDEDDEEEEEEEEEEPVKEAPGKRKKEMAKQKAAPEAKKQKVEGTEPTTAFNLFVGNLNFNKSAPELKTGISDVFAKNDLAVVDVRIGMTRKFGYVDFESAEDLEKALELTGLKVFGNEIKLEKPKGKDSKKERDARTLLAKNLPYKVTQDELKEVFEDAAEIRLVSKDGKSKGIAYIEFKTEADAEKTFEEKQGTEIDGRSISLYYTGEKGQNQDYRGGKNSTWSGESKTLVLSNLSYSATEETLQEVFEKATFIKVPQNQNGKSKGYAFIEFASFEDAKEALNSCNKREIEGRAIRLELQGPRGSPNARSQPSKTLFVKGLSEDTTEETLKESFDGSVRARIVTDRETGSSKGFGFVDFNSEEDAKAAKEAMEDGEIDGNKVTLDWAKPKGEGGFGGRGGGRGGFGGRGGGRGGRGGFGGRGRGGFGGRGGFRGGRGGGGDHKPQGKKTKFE

**Q.** How did the “NCL knockdown efficacy (mRNA)” value (NCL; MDA-MB-231 cells, among siNCL1, siNCL2, siNCL3) turn out when “siNCL1: siRNA targeting NCL, sense 5′-GAGCUAACCCUUAUCUGUA(dTdT)-3′ (SEQ ID NO: 21/22) (antisense UACAGAUAAGGGUUAGCUC; dTdT overhangs, further chemistry not given here)” was run?
**A.** The value was “highest knockdown efficacy”.

**Q.** And the “basal expression of NCL in cytosolic and cell membrane fractions (Western blotting)” value (NCL; siNCL1-treated cells)?
**A.** The value was “potently inhibited”.

**Q.** With “RHGA(Nle)VYLK (RHGAXVYLK; norleucine at position 5; AGM-330; Xaa can be any naturally occurring amino acid) [SEQ ID NO: 13]” as the molecule, how does the “absorbance (binding affinity) compared with AGM-330” value (“absorbance … compared with AGM-330” for short) (Cancer cells) read?
**A.** Its value is “higher absorbance than AGM-330”.

**Q.** With “RHGAMVYLKLKLK (not fully specified) [SEQ ID NO: 20, AGM-330 variant, tested PEGylated and biotin-conjugated]” as the molecule, how does the “absorbance … compared with AGM-330” value (Cancer cells) read?
**A.** Its value is “higher absorbance than AGM-330”.

**Q.** With “RHGAMVFLK (not fully specified) [SEQ ID NO: 15, AGM-330 variant, tested PEGylated and biotin-conjugated]” as the molecule, how does the “absorbance … compared with AGM-330” value (Cancer cells) read?
**A.** The value was “higher absorbance than AGM-330”.

**Q.** Which “binding to the human normal breast cell line MCF-10A” value (MCF-10A) does the source give for ADHRHRRSG (AGM-331) here?
**A.** Its value is “no or only weak binding”.

**Q.** What about the “binding to MDA-MB-231” value (MDA-MB-231) of the same molecule?
**A.** Its value is “strong preferential binding”.

**Q.** What about the “binding to normal cell lines MCF-10A and CCD-18Co” value (MCF-10A and CCD-18Co) of the same molecule?
**A.** The value was “relatively nonspecific and bound”.

**Q.** Which results are given for AVARARRRR (AGM-332)?
**A.** binding to the human normal breast cell line MCF-10A (MCF-10A): no or only weak binding; binding to MDA-MB-231 (MDA-MB-231): strong preferential binding; binding to normal cell lines MCF-10A and CCD-18Co (MCF-10A and CCD-18Co): relatively nonspecific and bound

**Q.** For “RHGALVYLK (not fully specified) [SEQ ID NO: 12, AGM-330 variant, tested PEGylated and biotin-conjugated]”, which “absorbance … compared with AGM-330” value (Cancer cells) is on record?
**A.** The value was “higher absorbance than AGM-330”.

B1: AGM-330 variant R1H2R3H4 → Insertion (SEQ ID NO: 18) (peptide)
peptide: RHRHRHGAMVYLK
modifications: also: PEGylated (site not given here), biotin-conjugated (site not given here)
**Q.** With B1 as the molecule, how does the “EC50 (read off the curve)” value [1] read?
**A.** Its value is about 2000 nM.

B2: AGM-330 variant L10K11L12K13 → Insertion (SEQ ID NO: 20) (peptide)
peptide: RHGAMVYLKLKLK
modifications: also: PEGylated, biotin-conjugated (sites not given here)
**Q.** Does B2 bind [1]?
**A.** Result: binds

B3: AGM-330 variant Reverse sequence (SEQ ID NO: 19) (peptide)
peptide: KLYVMAGHR
modifications: also: PEGylated (site not given here), biotin-conjugated (site not given here)
**Q.** Does B3 bind [1]?
**A.** Result: binds

B4: Biotinylated AGM-330 (peptide)
peptide: RHGAMVYLK
modifications: also: biotin-conjugated (site not given here)
notes: Bait of the pull-down assays; also called AGM-330-biotin; AGM-330-Biotin
**Q.** With B4 as the molecule, how does the “EC50 (read off the curve)” value [1] read?
**A.** Its value is about 2000 nM.

B5: AGM-330 variant R1H2 → Deletion (SEQ ID NO: 16) (peptide)
peptide: GAMVYLK
modifications: also: PEGylated, biotin-conjugated (sites not given here)
notes: also called GAMVYLK
**Q.** Does B5 bind [1]?
**A.** Result: binds

B6: AGM-330 variant A4 → L4 (SEQ ID NO: 11) (peptide)
peptide: RHGLMVYLK
modifications: also: PEGylated, biotin-conjugated (sites not given here)
**Q.** With B6 as the molecule, how does the “EC50 (read off the curve)” value [1] read?
**A.** The value was about 2000 nM.

B7: AGM-330 variant H2 → R2 (SEQ ID NO: 10) (peptide)
peptide: RRGAMVYLK
modifications: also: PEGylated, biotin-conjugated (sites not given here)
**Q.** B7 was tested. Which “EC50 (read off the curve)” value [1] did it give?
**A.** The value was about 2000 nM.

B8: AGM-330 variant Y7 → F7 (SEQ ID NO: 15) (peptide)
peptide: RHGAMVFLK
modifications: also: PEGylated (site not given here), biotin-conjugated (site not given here)
**Q.** B8 was tested. Which “EC50 (read off the curve)” value [1] did it give?
**A.** Its value is about 2000 nM.

B9: AGM-330 variant M5 → L5 (SEQ ID NO: 12) (peptide)
peptide: RHGALVYLK
modifications: also: PEGylated, biotin-conjugated (sites not given here)
**Q.** How did the “EC50 (read off the curve)” value [1] turn out when B9 was run?
**A.** The value was about 2000 nM.

B10: AGM-330 variant R1 → K1 (SEQ ID NO: 9) (peptide)
peptide: KHGAMVYLK
modifications: also: PEGylated, biotin-conjugated (sites not given here)
**Q.** For B10, which “EC50 (read off the curve)” value [1] is on record?
**A.** The value was about 2000 nM.

B11: AGM-330 variant V6 → A6 (SEQ ID NO: 14) (peptide)
peptide: RHGAMAYLK
modifications: also: PEGylated (site not given here), biotin-conjugated (site not given here)
**Q.** For B11, which “EC50 (read off the curve)” value [1] is on record?
**A.** Its value is about 2000 nM.

B12: AGM-330 variant R1H2 → Insertion (SEQ ID NO: 17) (peptide)
peptide: RHRHGAMVYLK
modifications: also: PEGylated, biotin-conjugated (sites not given here)
**Q.** Does B12 bind [1]?
**A.** Result: binds

B13: AGM-330 variant M5 → Nle5 (SEQ ID NO: 13) (peptide)
peptide: RHGAXVYLK
modifications: norleucine (Nle) at position 5; PEGylated; biotin-conjugated (sites not given)
notes: also called RHGA(Nle)VYLK
**Q.** Does B13 bind [1]?
**A.** Result: binds

Reference: patent US20250032629A1, “NOVEL NUCLEOLIN-BINDING PEPTIDE AND USE THEREOF” (ANYGEN CO., LTD., priority 2020, published 2025)
